The results in this text go back to publication PMC8599812 (Nucleic Acids Research, 2021).

The target in one series is RECQ1T1 (human, UniProt P46063 49-616). The series can be described thus: fluorescence anisotropy.
In another series the target is RECQ1T1,helix4A (human, UniProt P46063 49-616, F420A;F424A;S427A;S428A). The series can be described thus: fluorescence anisotropy. For orientation: Fluorescence polarisation rises when a labelled molecule tumbles more slowly, as on binding a larger partner.
The series “SEC” deals with the molecule itself. The series is described as follows: SEC.
Series [1] deals with T1, D2-Zn-WH (human, UniProt P46063 282-616). The series is described as follows: fluorescence anisotropy.
For series [2], the target named is T2, D2-Zn-WH helix4A (human, UniProt P46063 282-616, F420A;F424A;S427A;S428A). The series can be described thus: fluorescence anisotropy.
The target of series [3] is T1, D2-Zn-WH. The series is described as follows: fluorescence anisotropy. The source holds these as a separate data set.
In series [4] the target is T2, D2-Zn-WH helix4A. The series can be described thus: fluorescence anisotropy. This is another data set of the same source.
Series [5] deals with T1, D2-Zn-WH. The series is described as follows: fluorescence anisotropy. This is another data set of the same source.

Like-named read-outs stand apart in the source and are kept apart here.

T2 sequence (P46063 282-616 F420A/F424A/S427A/S428A): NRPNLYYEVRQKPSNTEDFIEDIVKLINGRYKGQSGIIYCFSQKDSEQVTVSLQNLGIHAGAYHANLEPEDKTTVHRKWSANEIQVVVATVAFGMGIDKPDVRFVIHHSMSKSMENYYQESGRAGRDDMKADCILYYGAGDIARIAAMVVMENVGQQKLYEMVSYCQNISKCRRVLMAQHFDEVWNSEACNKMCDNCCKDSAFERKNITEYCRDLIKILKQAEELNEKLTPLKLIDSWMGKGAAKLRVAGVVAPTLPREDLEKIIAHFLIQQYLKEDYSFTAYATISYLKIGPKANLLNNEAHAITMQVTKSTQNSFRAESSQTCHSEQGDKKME

B1: Fork30T_R_FL/Fork30T_F forked duplex (dsDNA)
DNA 1: TTTTTTTTTTTTTTTTTTTTTTTTTTTTTTCGTACCCGATGTGTTCGTTC
DNA 2: GAACGAACACATCGGGTACGTTTTTTTTTTTTTTTTTTTTTTTTTTTTTT
B1: the equilibrium dissociation constant (Kd) (in general, the equilibrium constant for the complex coming apart) is 0.087 ± 0.016 µM with RECQ1T1 and 0.193 ± 0.027 µM with RECQ1T1,helix4A.

B2: RECQ1^T1 (near full-length human RECQ1, amino acid 49–616) (enzyme, UniProt P46063 49-616, looked up)
chain: CLEDSDAGASNEYDSSPAAWNKEDFPWSGKVKDILQNVFKLEKFRPLQLETINVTMAGKEVFLVMPTGGGKSLCYQLPALCSDGFTLVICPLISLMEDQLMVLKQLGISATMLNASSSKEHVKWVHAEMVNKNSELKLIYVTPEKIAKSKMFMSRLEKAYEARRFTRIAVDEVHCCSQWGHDFRPDYKALGILKRQFPNASLIGLTATATNHVLTDAQKILCIEKCFTFTASFNRPNLYYEVRQKPSNTEDFIEDIVKLINGRYKGQSGIIYCFSQKDSEQVTVSLQNLGIHAGAYHANLEPEDKTTVHRKWSANEIQVVVATVAFGMGIDKPDVRFVIHHSMSKSMENYYQESGRAGRDDMKADCILYYGFGDIFRISSMVVMENVGQQKLYEMVSYCQNISKCRRVLMAQHFDEVWNSEACNKMCDNCCKDSAFERKNITEYCRDLIKILKQAEELNEKLTPLKLIDSWMGKGAAKLRVAGVVAPTLPREDLEKIIAHFLIQQYLKEDYSFTAYATISYLKIGPKANLLNNEAHAITMQVTKSTQNSFRAESSQTCHSEQGDKKME
As for B2, the stoichiometry N – broadly, the number of molecules, sites or subunits per partner or assembly – in the series “SEC” was found to be 2.

B3: Rec20_FL/Rec20R_3oh 20/10-mer 3' tailed duplex (dsDNA)
DNA 1: GGATCTCGACGCTCTCCCTT
DNA 2: GTCGAGATCC
As to B3, the Kd was 1.97 ± 0.3 µM with D2-Zn-WH [1] and 5.7 ± 1.1 µM with D2-Zn-WH helix4A [2].

Turning to GGATCTCGACGCTCTCCCTT (ssDNA) [Rec20_FL ssDNA 20-mer], binding in the series with D2-Zn-WH [3] was put at a Kd of 1.48 ± 0.11 µM.

B4: Rec20_FL/Rec20R 20 bp blunt duplex (dsDNA)
DNA 1: GGATCTCGACGCTCTCCCTT
DNA 2: AAGGGAGAGCGTCGAGATCC
B4: the results for the dissociation constant (Kd) with D2-Zn-WH helix4A [4] and with D2-Zn-WH [5] were 2.08 ± 0.15 µM and 1.17 ± 0.12 µM, respectively.
